Experimental data taken from US20090208949A1 (WISCONSIN ALUMNI RESEARCH FOUNDATION, published 2009).
Where no end group is shown, it is not given here.

B1: C-terminus of the PIPKIγ 707 splice variant (other)
chain: FTDGRYWIYSPRHRRLRAVTLSASGTVSDRSRPPWGEGAVPLGQQGAAGPRPEAQCLTSVVFQKGFG
notes: Yeast two-hybrid bait
B2: C-terminus of the PIPKIγ 700 variant (other)
chain: WRLWGPHAPTWPWRREGRAACLCPYPPHVVTPFPGTGLCASWSPDGTGGLGAMSCCVSVS
modifications: not fully specified; cysteine pairing not given here
notes: Yeast two-hybrid bait

Columns and labels:
sorting nexin 5 = target: T1, sorting nexin 5 (Homo sapiens (Human), UniProt Q9Y5X3 1-404, limits assumed); test: yeast two-hybrid screen
T1 construct: also called SNX5; Myc-SNX5
T1 sequence: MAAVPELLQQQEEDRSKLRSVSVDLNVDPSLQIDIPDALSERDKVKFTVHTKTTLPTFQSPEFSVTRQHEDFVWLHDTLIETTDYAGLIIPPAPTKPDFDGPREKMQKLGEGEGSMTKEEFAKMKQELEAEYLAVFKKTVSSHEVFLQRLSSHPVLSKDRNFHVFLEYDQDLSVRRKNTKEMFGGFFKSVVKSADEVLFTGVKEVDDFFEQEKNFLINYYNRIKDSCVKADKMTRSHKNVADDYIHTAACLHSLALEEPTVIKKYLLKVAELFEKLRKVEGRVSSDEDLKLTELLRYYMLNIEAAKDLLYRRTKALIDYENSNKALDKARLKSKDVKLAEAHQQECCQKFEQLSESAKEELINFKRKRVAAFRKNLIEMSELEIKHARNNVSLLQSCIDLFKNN

LMO4 = target: T2, LMO4 (Homo sapiens (Human), UniProt P61968 1-165); test: yeast two-hybrid screen
T2 sequence: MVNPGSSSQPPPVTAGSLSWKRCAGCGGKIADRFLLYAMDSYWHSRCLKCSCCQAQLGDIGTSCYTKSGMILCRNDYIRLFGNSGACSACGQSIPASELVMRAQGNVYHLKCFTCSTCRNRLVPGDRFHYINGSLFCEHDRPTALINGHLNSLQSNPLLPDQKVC

binding result (sorting nexin 5) | binding result (LMO4) | Binder
binds | – | B1
– | binds | B2
